Measurements: paper PMC11154709, “4S-fluorination of ProB29 in insulin lispro slows fibril formation” (The Journal of Biological Chemistry, 2024)

Experiments:
[1] = Analytical ultracentrifugation, velocity sedimentation: hydrodynamic parameters; assay type: physicochemical; conditions: 140-206 µM in 100 mM phosphate buffer, pH 8.0, 60,000 RPM, 20 °C, brackets 95% confidence interval
Method: Lispro variants (140–206 μM in 100 mM phosphate buffer, pH 8.0) were analyzed by velocity sedimentation at the Canadian Center for Hydrodynamics at the University of Lethbridge using absorbance optics. All samples were measured at 60,000 RPM and 20 °C. Data were analyzed with UltraScan III version 4.0 release 6606 ([38]). Velocity data were initially fitted with the two-dimensional spectrum analysis ([39]) to determine meniscus position and time- and radially-invariant noise, and to generate molecular weight distributions. Two-dimensional spectrum analysis results were refined using the genetic algorithm approach ([40]). Sedimentation and diffusion coefficients derived from the genetic algorithm analysis were transformed to molar mass distributions, assuming a partial specific volume of 0.7248 ml/g for all lispro variants. The enhanced van Holde-Weischet analysis ([41]) was used to determine diffusion-corrected sedimentation coefficient distributions. For the Kd analysis, AUC data were fitted with a discrete model genetic algorithm approach ([29]), assuming the known molar mass of the monomer and floating the Kd, koff, total concentration, partial specific volumes, and frictional ratios as reported in Table S3. […]
Analytical ultracentrifugation:
Lispro variants were formulated at 140 -206 µM in 100 mM phosphate buffer, pH 8.0. Velocity sedimentation experiments were performed at the Canadian Center for Hydrodynamics at the University of Lethbridge using absorbance optics. High concentrations sample s were measured at 237 nm, intermediate concentration samples at 232 nm, and low concentration samples at 225 nm. All samples were measured at 60,000 RPM and 20°C in standard Beckman Coulter cell […]
housings fitted with 0.3 cm epon-charcoal centerpieces for the high concentration samples, and 1.2 cm epon-charcoal centerpieces for the intermediate and low concentration samples. All cells were fitted with sapphire windows. Data were analyzed with UltraScan III version 4.0 release 6606. (38) Velocity data were initially fitted with the two -dimensional spectrum analysis (39) to determine meniscus position and time - and radially-invariant noise, and to generate molecular weight distributions. 2DSA results were refined using the genetic algorithm (GA) approach. (40) Sedimentation and diffusion coefficients derived from the GA analysis were transformed to molar mass distributions (see Figure S2), assuming a partial specific volume of 0.7248 ml/g for all lispro variants. The enhanced van Holde -Weischet analysis (41) was used to determine diffusion - corrected sedimentation coefficient distributions. For the K d analysis, AUC data were fitted with a discrete model genetic algorithm (DMGA) approach,(29) assuming the known molar mass of the monomer, and floating the K d, koff, total concentration, partial specific volumes, and frictional […]
Lispro samples (60 µM in 100 mM sodium phosphate, pH 8.0) were centrifuged at 22,000 g for 1 h at 4°C, before 1 µM thioflavin T (ThT) was added. Each lispro (200 µL) was added to a 96 -well, black, clear bottom plate (Greiner Bio -One) and sealed. Samples were shaken continuously at 960 rpm on a Varioskan multimode plate reader at 37°C, and fluorescence readings were recorded every 15 min (444 nm excitation, 485 nm em ission). Fibrillation runs were performed on at least two separate HPLC fractions, each in triplicate or quadruplicate, and on two different days. The growth phase of each fibrillation replicate was fit to a linear function; f ibrillation lag times were reported as the x-intercept of this fit. Fibril samples were stored at 4°C until analysis by transmission electron microscopy (TEM).
Transmission electron microscopy:
Lispro fibrils were briefly centrifuged (5 kg, 1 min), then washed twice and resuspended in ddH 2O.
Fibrils were stained with 2% uranyl acetate on a 300 -mesh formvar/carbon coated copper grid (Electron Microscopy Sciences) and imaged on a Tecnai T12 LaB6 […] transmission electron […]

[2] = ANS fluorescence (conformational disorder); assay type: physicochemical; conditions: 1 μM lispro variant, 5 μM ANS, 100 mM phosphate, pH 8.0, ambient temperature, 350 nm excitation; mean ± SD, three separate HPLC fractions
Method: Figure 4 Fibrillation of lispro variants.A, lispro variants (60 μM in 100 mM phosphate buffer, pH 8.0) were incubated at 37 °C with vigorous shaking; fibril formation was monitored by ThT fluorescence. Fibrillation runs were performed on two separate HPLC fractions, each in triplicate or quadruplicate, on two separate days. B–E, TEM images of lispro (B), KP-4R-F (C), KP-4S-F (D), and KP-44-diF (E) aggregates. F, ANS emission spectra of lispro variants (1 μM lispro variant labeled with 5 μM ANS in 100 mM phosphate buffer, pH 8.0). The data presented here indicate the mean ± SD for each variant from measurements of three separate HPLC fractions. 44-diF, 4,4-difluoroproline; 4R-F, 4R-fluoroproline; 4S-F, 4S-fluoroproline; ThT, thioflavin T. […]
Lispro variants (1 μM) were mixed with 5 μM ANS in 100 mM phosphate buffer, pH 8.0. Fluorescence emission spectra were measured at ambient temperature (350 nm excitation). Measurements for each lispro were performed in triplicate from three separate HPLC fractions. […]
Transmission electron microscopy: […]
Lispro variants (1 µM) were mixed with 5 µM ANS in 100 mM phosphate buffer, pH 8.0.
Fluorescence emission spectra were measured in 1 cm quartz cuvettes at ambient temperature using a PTI QuantaMaster fluorescence spectrofluorometer. A 2 nm s -1 scan rate and 350 nm excitation wavelength were used. Measurements for each variant were performed in triplicate from three separate HPLC fractions.

[3] = target: reversible monomer-dimer equilibrium; conditions: read-out: Kd (monomer-dimer), previously reported; cited from earlier work
Description: The secondary structure of each insulin lispro variant was probed by circular dichroism spectroscopy. […] All lispro samples were further analyzed by analytical ultracentrifuga ...

Substance | Partial specific volume PSV [1] | Dimer diffusion coefficient D [1] | Dimer frictional ratio [1] | Dimer sedimentation coefficient s [1] | Monomer diffusion coefficient D [1] | Monomer frictional ratio [1] | Monomer sedimentation coefficient s [1] | ANS emission maximum [2] | Kd [3]
KP-4R-F: insulin lispro with ProB29 replaced by 4R-fluoroproline | 0.69 [0.69, 0.70] ml g-1 | 1.31 [1.08, 1.55] µm2/s | 1.12 [0.90, 1.35] | 1.99 [1.58, 2.39] S | 1.20 [1.14, 1.25] µm2/s | 1.54 [1.47, 1.61] | 0.90 [0.88, 0.93] S | 464 ± 4 nm | 
KP-4S-F: insulin lispro with ProB29 replaced by 4S-fluoroproline | 0.68 [0.67, 0.69] ml g-1 | 1.20 [1.05, 1.35] µm2/s | 1.23 [1.08, 1.37] | 1.87 [1.63, 2.10] S | 1.32 [1.29, 1.36] µm2/s | 1.40 [1.35, 1.44] | 1.03 [1.00, 1.05] S | 463 ± 6 nm | 
KP-44-diF: insulin lispro with ProB29 replaced by 4,4-difluoroproline | 0.67 [0.64, 0.70] ml g-1 | 0.99 [0.84, 1.14] µm2/s | 1.50 [1.40, 1.60] | 1.59 [1.30, 1.88] S | 1.24 [1.16, 1.32] µm2/s | 1.50 [1.40, 1.60] | 1.00 [0.95, 1.04] S | 462 ± 5 nm | 
insulin lispro: fast-acting insulin with inversion of the residues ProB28 and LysB29; Humalog, Eli Lilly [reference compound] | 0.72 [0.70, 0.74] ml g-1 | 1.10 [0.99, 1.21] µm2/s | 1.31 [1.20, 1.43] | 1.48 [1.25, 1.72] S | 1.26 [1.16, 1.35] µm2/s | 1.44 [1.32, 1.57] | 0.85 [0.81, 0.88] S | 466 ± 2 nm | 1.1 mM
